This passage reports pKd results from article PMC9482650, “Quantitative fragmentomics allow affinity mapping of interactomes” (Nature Communications, 2022).

Among the targets are Inadl_6, Q8NI35; MAGI1_2, Q96QZ7; PICK1, Q9NRD5; SNX27, Q96L92; FRMPD2_3, Q68DX3; LNX1_2, Q8TBB1; GRID2IP_2, A4D2P6; FRMPD2_2, Q68DX3; LAP2, Q96RT1; GRASP, Q7Z6J2.
What all share (assay): holdup assay
What all share (set-up): key: below the threshold = too weak to quantify, mostly under pKd 3.1 to 4
Details in all cases: plain residues with an end cap or a label only (N-terminal biotin on a linker: ado-ado)

For a further assay, the target named is T1, LIN7C, Q9NUP9.
T1 sequence (Q9NUP9 88-185, limits assumed, looked up): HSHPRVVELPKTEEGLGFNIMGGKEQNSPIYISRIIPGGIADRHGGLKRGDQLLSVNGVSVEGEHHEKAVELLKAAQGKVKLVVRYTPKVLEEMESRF

The next assay concerns the target T2, TIAM2, Q8IVF5.
T2 sequence (Q8IVF5 885-986, limits assumed, looked up): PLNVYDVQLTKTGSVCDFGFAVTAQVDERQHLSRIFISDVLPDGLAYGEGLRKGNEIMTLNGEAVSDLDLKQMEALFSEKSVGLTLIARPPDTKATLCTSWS

Another assay has as its target T3, PDZD2_2, O15018.
T3 sequence (O15018 329-429, limits assumed, looked up): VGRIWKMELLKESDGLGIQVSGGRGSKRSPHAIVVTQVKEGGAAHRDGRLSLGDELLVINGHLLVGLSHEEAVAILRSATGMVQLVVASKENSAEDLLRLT

The target in another assay is T4, ARHGEF11, O15085.
T4 sequence (O15085 42-136, limits assumed, looked up): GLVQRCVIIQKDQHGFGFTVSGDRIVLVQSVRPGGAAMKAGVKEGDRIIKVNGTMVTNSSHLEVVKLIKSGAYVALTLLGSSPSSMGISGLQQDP

For the next assay, the target named is T5, APBA1_1, Q02410.
T5 sequence (Q02410 651-752, limits assumed, looked up): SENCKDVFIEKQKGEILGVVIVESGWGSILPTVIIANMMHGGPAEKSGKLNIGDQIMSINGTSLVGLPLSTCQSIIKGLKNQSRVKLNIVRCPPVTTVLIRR

The target in a further assay is T6, LIN7B, Q9HAP6.
T6 sequence (Q9HAP6 88-185, limits assumed, looked up): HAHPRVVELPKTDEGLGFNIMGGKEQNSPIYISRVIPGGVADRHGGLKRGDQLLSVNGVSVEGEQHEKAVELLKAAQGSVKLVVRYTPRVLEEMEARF

The target of a further assay is T7, MPDZ_10, O75970.
T7 sequence (O75970 1624-1722, limits assumed, looked up): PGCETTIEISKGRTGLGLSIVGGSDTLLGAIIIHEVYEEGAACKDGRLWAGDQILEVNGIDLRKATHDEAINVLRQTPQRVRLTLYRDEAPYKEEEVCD

The target of another assay is T8, GRIP1_4, Q9Y3R0.
T8 sequence (Q9Y3R0 467-571, limits assumed, looked up): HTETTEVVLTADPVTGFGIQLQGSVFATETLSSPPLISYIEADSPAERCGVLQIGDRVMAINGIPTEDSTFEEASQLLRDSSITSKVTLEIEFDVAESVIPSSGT

Another assay deals with T9, DVL3, Q92997.
T9 sequence (Q92997 244-331, limits assumed, looked up): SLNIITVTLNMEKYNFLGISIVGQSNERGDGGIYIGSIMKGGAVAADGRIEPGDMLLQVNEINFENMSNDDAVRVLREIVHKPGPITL

A further assay addresses T10, MPDZ_5, O75970.
T10 sequence (O75970 695-796, limits assumed, looked up): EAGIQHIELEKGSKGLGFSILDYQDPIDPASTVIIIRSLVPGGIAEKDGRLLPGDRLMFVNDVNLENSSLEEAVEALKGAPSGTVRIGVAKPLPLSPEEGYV

In the next assay the target is T11, TX1BP3, O14907.
T11 sequence (O14907 10-122, limits assumed, looked up): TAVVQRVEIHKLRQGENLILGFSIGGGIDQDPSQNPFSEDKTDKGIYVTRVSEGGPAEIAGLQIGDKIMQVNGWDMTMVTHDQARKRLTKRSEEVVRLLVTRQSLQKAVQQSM

The next assay has as its target T12, DLG3_2, Q92796.
T12 sequence (Q92796 221-321, limits assumed, looked up): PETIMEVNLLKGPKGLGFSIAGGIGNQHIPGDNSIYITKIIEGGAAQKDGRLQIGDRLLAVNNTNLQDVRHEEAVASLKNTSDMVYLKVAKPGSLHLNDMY

A further assay has as its target T13, SNTB1, Q13884.
T13 sequence (Q13884 107-205, limits assumed, looked up): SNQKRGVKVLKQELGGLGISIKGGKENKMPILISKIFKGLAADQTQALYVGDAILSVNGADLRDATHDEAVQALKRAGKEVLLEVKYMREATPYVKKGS

For orientation: pKd means the Kd on a negative log10 scale, so that one unit is a factor of ten.

Chain of FRMPD2_3, Q68DX3 (Q68DX3 1073-1166): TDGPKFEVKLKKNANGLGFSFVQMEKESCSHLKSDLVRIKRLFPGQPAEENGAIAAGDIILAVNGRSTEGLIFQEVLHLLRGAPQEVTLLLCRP
Chain of GRID2IP_2, A4D2P6 (A4D2P6 272-370): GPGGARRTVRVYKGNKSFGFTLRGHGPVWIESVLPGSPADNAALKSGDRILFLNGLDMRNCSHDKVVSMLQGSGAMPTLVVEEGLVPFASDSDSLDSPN
Chain of Inadl_6, Q8NI35 (Q8NI35 1058-1167): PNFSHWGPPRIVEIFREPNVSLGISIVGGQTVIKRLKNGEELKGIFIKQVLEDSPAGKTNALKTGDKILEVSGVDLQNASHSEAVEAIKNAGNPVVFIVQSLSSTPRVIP
Chain of MAGI1_2, Q96QZ7 (Q96QZ7 456-580): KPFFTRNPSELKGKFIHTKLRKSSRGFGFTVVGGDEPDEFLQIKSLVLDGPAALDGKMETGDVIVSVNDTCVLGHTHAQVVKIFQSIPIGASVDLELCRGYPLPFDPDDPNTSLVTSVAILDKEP
Chain of LNX1_2, Q8TBB1 (Q8TBB1 371-470): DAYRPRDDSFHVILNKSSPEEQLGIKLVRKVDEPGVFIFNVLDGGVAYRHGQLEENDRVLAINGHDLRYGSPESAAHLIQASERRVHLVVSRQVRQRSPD
Chain of LAP2, Q96RT1 (Q96RT1 other isoform, or with tags, fused parts or gaps): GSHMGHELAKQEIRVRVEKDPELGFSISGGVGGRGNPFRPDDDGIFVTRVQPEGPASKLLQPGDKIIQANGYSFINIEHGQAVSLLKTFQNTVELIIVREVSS
Chain of FRMPD2_2, Q68DX3 (Q68DX3 944-1038): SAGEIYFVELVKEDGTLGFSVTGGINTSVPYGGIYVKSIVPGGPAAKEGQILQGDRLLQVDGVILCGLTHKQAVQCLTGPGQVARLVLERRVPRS
Chain of GRASP, Q7Z6J2 (Q7Z6J2 96-193): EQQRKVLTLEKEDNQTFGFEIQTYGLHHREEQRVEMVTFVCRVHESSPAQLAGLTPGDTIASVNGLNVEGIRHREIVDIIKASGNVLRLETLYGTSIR
Chain of PICK1, Q9NRD5 (Q9NRD5 17-115): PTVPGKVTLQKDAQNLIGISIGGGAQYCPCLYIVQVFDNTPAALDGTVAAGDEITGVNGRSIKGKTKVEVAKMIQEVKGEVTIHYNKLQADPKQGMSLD

Take PLPPEEESWV [GAS2L2, Q8NHY3]: the pKd was 5.43 with Inadl_6, Q8NI35; 3.77 in the assay with LIN7C, Q9NUP9; 4.17 with TIAM2, Q8IVF5; “below the threshold” with MAGI1_2, Q96QZ7; “below the threshold” in the assay with PICK1, Q9NRD5; 5.58 with SNX27, Q96L92. For the same molecule, the pKd with FRMPD2_3, Q68DX3 is 4.04; in the assay with PDZD2_2, O15018, 6.13; with ARHGEF11, O15085, 4.46; with LNX1_2, Q8TBB1, 3.94; with APBA1_1, Q02410, “below the threshold”; with LIN7B, Q9HAP6 it was 3.96. In addition, the pKd was 4.06 with GRID2IP_2, A4D2P6; “below the threshold” with MPDZ_10, O75970; 6.16 with FRMPD2_2, Q68DX3; “below the threshold” in the assay with GRIP1_4, Q9Y3R0; 4.01 with DVL3, Q92997; 3.79 with MPDZ_5, O75970. For the same molecule, the pKd in the assay with TX1BP3, O14907 was 4.62; with DLG3_2, Q92796, 4.64; with LAP2, Q96RT1, 5.73; with GRASP, Q7Z6J2 it was 4.23; in the assay with SNTB1, Q13884, 4.86.

With RSPVATATSC [DUSP5, Q16690], the pKd result in the assay with Inadl_6, Q8NI35 is “below the threshold”; with LIN7C, Q9NUP9 it was “below the threshold”; with TIAM2, Q8IVF5, 4.09; with MAGI1_2, Q96QZ7 it was “below the threshold”; in the assay with PICK1, Q9NRD5, 3.97; in the assay with SNX27, Q96L92, “below the threshold”. The pKd entry in the assay with FRMPD2_3, Q68DX3 is “below the threshold”; with PDZD2_2, O15018, “below the threshold”; with ARHGEF11, O15085 it was “below the threshold”; with LNX1_2, Q8TBB1 it was “below the threshold”; with APBA1_1, Q02410 it was “below the threshold”; with LIN7B, Q9HAP6 it was 3.68. Besides, the pKd was 3.79 in the assay with GRID2IP_2, A4D2P6; “below the threshold” with MPDZ_10, O75970; “below the threshold” with FRMPD2_2, Q68DX3; “below the threshold” in the assay with GRIP1_4, Q9Y3R0; “below the threshold” with DVL3, Q92997; “below the threshold” with MPDZ_5, O75970. Moreover, the pKd entry with TX1BP3, O14907 was “below the threshold”; with DLG3_2, Q92796, 4.18; with LAP2, Q96RT1, “below the threshold”; in the assay with GRASP, Q7Z6J2, “below the threshold”; with SNTB1, Q13884, “below the threshold”.

Take STYCDYTIEI [FAM71C, Q8NEG0]: the pKd result is “below the threshold” with Inadl_6, Q8NI35; “below the threshold” with LIN7C, Q9NUP9; 4.15 in the assay with TIAM2, Q8IVF5; “below the threshold” with MAGI1_2, Q96QZ7; “below the threshold” with PICK1, Q9NRD5; 3.56 with SNX27, Q96L92. Moreover, the negative logarithm of the Kd (pKd) result with FRMPD2_3, Q68DX3 was “below the threshold”; with PDZD2_2, O15018 it was 4.69; with ARHGEF11, O15085 it was 4; with LNX1_2, Q8TBB1 it was 4.35; with APBA1_1, Q02410, “below the threshold”; in the assay with LIN7B, Q9HAP6, “below the threshold”. Further, the pKd result in the assay with GRID2IP_2, A4D2P6 was “below the threshold”; in the assay with MPDZ_10, O75970, “below the threshold”; with FRMPD2_2, Q68DX3, “below the threshold”; with GRIP1_4, Q9Y3R0 it was “below the threshold”; with DVL3, Q92997 it was 4.01; with MPDZ_5, O75970 it was “below the threshold”. For the same molecule, the pKd result with TX1BP3, O14907 was “below the threshold”; with DLG3_2, Q92796 it was “below the threshold”; with LAP2, Q96RT1, “below the threshold”; with GRASP, Q7Z6J2 it was 3.69; with SNTB1, Q13884 it was “below the threshold”.

In the case of MQILSKPEFI [NPSR1, Q6W5P4], the negative-log Kd (pKd) result with Inadl_6, Q8NI35 is “below the threshold”; with LIN7C, Q9NUP9, “below the threshold”; in the assay with TIAM2, Q8IVF5 it was 4.05; with MAGI1_2, Q96QZ7 it was “below the threshold”; in the assay with PICK1, Q9NRD5, 4.08; in the assay with SNX27, Q96L92 it was “below the threshold”. Also, the pKd result in the assay with FRMPD2_3, Q68DX3 is “below the threshold”; with PDZD2_2, O15018 it was 3.62; with ARHGEF11, O15085, “below the threshold”; with LNX1_2, Q8TBB1 it was “below the threshold”; with APBA1_1, Q02410, 3.88; with LIN7B, Q9HAP6, 3.81. Besides, the pKd entry in the assay with GRID2IP_2, A4D2P6 is “below the threshold”; in the assay with MPDZ_10, O75970 it was “below the threshold”; in the assay with FRMPD2_2, Q68DX3 it was “below the threshold”; in the assay with GRIP1_4, Q9Y3R0, “below the threshold”; in the assay with DVL3, Q92997 it was 3.61; with MPDZ_5, O75970, “below the threshold”. Moreover, the pKd result in the assay with TX1BP3, O14907 was “below the threshold”; with DLG3_2, Q92796 it was 4.18; in the assay with LAP2, Q96RT1, “below the threshold”; with GRASP, Q7Z6J2 it was 3.68; in the assay with SNTB1, Q13884, “below the threshold”.

As for NISARRFTLC [FAM167B, Q9BTA0], the pKd result in the assay with Inadl_6, Q8NI35 was “below the threshold”; in the assay with LIN7C, Q9NUP9, “below the threshold”; in the assay with TIAM2, Q8IVF5, “below the threshold”; with MAGI1_2, Q96QZ7, 5.12; with PICK1, Q9NRD5, “below the threshold”; with SNX27, Q96L92, “below the threshold”. Also, the pKd entry with FRMPD2_3, Q68DX3 was “below the threshold”; with PDZD2_2, O15018 it was “below the threshold”; in the assay with ARHGEF11, O15085, 3.86; with LNX1_2, Q8TBB1, 4.62; in the assay with APBA1_1, Q02410, “below the threshold”; in the assay with LIN7B, Q9HAP6, 4.08. In addition, the pKd is 4.21 with GRID2IP_2, A4D2P6; “below the threshold” with MPDZ_10, O75970; 3.67 in the assay with FRMPD2_2, Q68DX3; “below the threshold” in the assay with GRIP1_4, Q9Y3R0; “below the threshold” with DVL3, Q92997; “below the threshold” in the assay with MPDZ_5, O75970. The pKd result with TX1BP3, O14907 is “below the threshold”; in the assay with DLG3_2, Q92796, 4.42; with LAP2, Q96RT1, “below the threshold”; in the assay with GRASP, Q7Z6J2, 4.36; with SNTB1, Q13884, 3.52.
